6 molecules from patent publication US20040229366A1 (University of California, published 2004) can be followed below.

In experiment [1] the target is T1, bait vector (empty pBI-880, GAL4 (1-147) alone) (UniProt P04386 1-147).
T1 construct: range 1-147; Negative control: bait vector without insert; also called empty bait
The experiment in a line: yeast two-hybrid, K-box prey with empty bait. The source says:
Previous studies have shown that the MADS-domain and I regions may be important for homodimer formation by AG and by AP1 (Krizek and Meyerowitz, 1996; Mizukami et al., 1996; Riechmann et al., 1996) and that the I region and K-domain are needed for the formation of AP3/PI heterodimers (Krizek and Meyerowitz, Proc. Natl. Acad. Sci. USA 93, 4063-4070 (1996); Riechmann et al., Proc. Natl. Acad. Sci. USA 93, 4793-4798 (1996)). In addition, the K-domain of AG is sufficient to promote interactions with SEP1, SEP2, SEP3 and AGL6 in yeast (Fan et al., Plant J. 11, 999-1010 (1997)). Since many of the CAL- and AP1-interacting clones isolated as part of our study lacked the MADS-domain and I regions, we tested if the K-domain itself was sufficient to promote the observed interactions. First, we subcloned the K-box regions of SEP3, SOC1, SVP and AGL24 into the prey vector, and tested their ability to activate the reporter using either the empty bait or the cruciferin gene cloned into the bait plasmid. […] However, other protein domains appear to enhance these interactions since the level of reporter gene activation is higher when larger constructs are used.

The target in experiment [2] is T1, bait vector (empty pBI-880, GAL4 …). The experiment in a line: yeast two-hybrid retest, B-Gal and HIS prototrophy. The source says: To confirm the specificity of the observed interactions, the longest and shortest clone of each class was transformed back into a yeast strain that contained either the CAL bait, the bait vector, or an inert control bait, cruciferin. The strains containing the CAL bait tested positive for both B-Gal activity and HIS prototrophy. The strains containing the bait vector or the cruciferin bait were negative in both assays, as they were not able to grow on plates lacking histidine and the yeast colonies were completely white in the B-Gal assay.

In experiment [3] the target is T2, CAL bait (GAL4 (1-147) fused to the intact CAL coding region in pBI-880) (Arabidopsis thaliana).
T2 construct: range 1-147; also called CAULIFLOWER; full-length CAL cDNA as bait
The experiment in a line: yeast two-hybrid with CAL bait. From the text: To confirm the specificity of these interactions, the longest clone of each class was transformed back into yeast with the AP1 bait, the bait vector, and an inert control bait, cruciferin. The strains containing the AP1 bait tested positive for both β-Gal activity and HIS prototrophy. The strains containing the bait vector or the cruciferin bait were negative in both assays. We then tested if the three new AP1-interacting clones could also interact with CAL, since they had not been isolated in the CAL library screen. However, AGL27, the RNA binding protein, and the novel protein were unable to interact with CAL in yeast.

B1: SVPK (K-box region of SVP in prey vector pBI771) (other, not shown: small tags and cut ends)
chain: MSDHARMSKEIADKSHRLRQMRGEELQGLDIEELQQLEKALETGLTRVIETKSDKIMSEISELQKKG
notes: also called SVP K-box; K-box prey construct
For B1, in experiment [1], the binding result is “no binding”.

B2: AGL24K (K-box region of AGL24 in prey vector pBI771) (other, not shown: small tags and cut ends)
chain: MLENCNLSRLSKEVEDKTKQLRKLRGEDLDGLNLEELQRLEKLLESGLSRVSEKKGECVMSQIFSLE
notes: also called AGL24 K-box; K-box prey construct
As for B2, the binding result in experiment [1] was “no binding”.

B3: shortest AGL24 clone from the CAL two-hybrid screen (other)
chain: EVEDKTKQLRKLRGEDLDGLNLEELQRLEKLLESGLSRVSEKKGECVMSQIFSLEKRGSELVDENKRLRDKLETLERAKLTTLKEALETESVTTNVSSYDSGTPLEDDSDTSLKLGLPSWE
notes: Lacks the MADS domain and I region; also called shortest clone of each class; shortest clones isolated in the screen; not shown: fusion partner encoded by prey vector pBI771
For the molecule B3, the binding result in experiment [2] was “no binding”.

B4: SEP3K (K-box region of SEP3 in prey vector pBI771) (other)
chain: SQQEYLKLKERYDALQRTQRNLLGEDLGPLSTKELESLERQLDSSLKQIRALRTQFMLDQLNDLQSK
notes: also called SEP3 K-box; K-box prey construct; not shown: fusion partner encoded by prey vector pBI771
Take B4: the binding result in experiment [1] is on record as “no binding”.

B5: SOC1K (K-box region of SOC1 in prey vector pBI771) (other, not shown: small tags and cut ends)
chain: MKYEAANMMKKIEQLEASKRKLLGEGIGTCSIEELQQIEQQLEKSVKCIRARKTQVFKEQIEQLKQKE
notes: also called SOC1 K-box; K-box prey construct
Turning to B5, in experiment [1], the binding result is given as “no binding”.

B6: AGL27 clone isolated in the AP1 two-hybrid screen (one clone) (other)
chain: MGRRKIEIKRIENKSSRQVTFSKRRNGLIDKARQLSILCESSVAVVVVSASGKLYDSSSGDDISKIIDRYEIQHADELRALDLEEKIQNYLPHKELLETVQSKLEEPNVDNVSVDSLISLEEQLETALSVSRARKAELMMEYIESLKEKEKLLREENQVLASQLSEKKGMSHR
notes: also called new MADS box gene designated AGL27; not shown: fusion partner encoded by prey vector pBI771
On to B6, for which, in experiment [3], the binding result is “no binding”.
